According to PMC2873280, “Generation of anti-TLR2 intrabody mediating inhibition of macrophage surface TLR2 expression and TLR2-driven cell activation” (BMC Biotechnology, 2010):

Biological target: T1, N-terminally Flag-tagged human TLR2 (Homo sapiens, UniProt O60603)
T1 construct: Toll-like receptor 2, human; also called hTLR2; Toll-like receptor 2; source: HEK293, transiently transfected, in lysate; not shown: Flag, N-terminal, kept
Assay: co-IP; HEK293 cells co-transfected with Flag-tagged human TLR2 and myc-tagged intrabody; lysed after 48 h (0.5% NP40, 150 mM NaCl); IP with myc-specific antibody and protein G beads, 4°C, 16 h, 5 washes; blot with tag-specific antibodies
Details: partners not purified

T1 sequence (O60603 21-784): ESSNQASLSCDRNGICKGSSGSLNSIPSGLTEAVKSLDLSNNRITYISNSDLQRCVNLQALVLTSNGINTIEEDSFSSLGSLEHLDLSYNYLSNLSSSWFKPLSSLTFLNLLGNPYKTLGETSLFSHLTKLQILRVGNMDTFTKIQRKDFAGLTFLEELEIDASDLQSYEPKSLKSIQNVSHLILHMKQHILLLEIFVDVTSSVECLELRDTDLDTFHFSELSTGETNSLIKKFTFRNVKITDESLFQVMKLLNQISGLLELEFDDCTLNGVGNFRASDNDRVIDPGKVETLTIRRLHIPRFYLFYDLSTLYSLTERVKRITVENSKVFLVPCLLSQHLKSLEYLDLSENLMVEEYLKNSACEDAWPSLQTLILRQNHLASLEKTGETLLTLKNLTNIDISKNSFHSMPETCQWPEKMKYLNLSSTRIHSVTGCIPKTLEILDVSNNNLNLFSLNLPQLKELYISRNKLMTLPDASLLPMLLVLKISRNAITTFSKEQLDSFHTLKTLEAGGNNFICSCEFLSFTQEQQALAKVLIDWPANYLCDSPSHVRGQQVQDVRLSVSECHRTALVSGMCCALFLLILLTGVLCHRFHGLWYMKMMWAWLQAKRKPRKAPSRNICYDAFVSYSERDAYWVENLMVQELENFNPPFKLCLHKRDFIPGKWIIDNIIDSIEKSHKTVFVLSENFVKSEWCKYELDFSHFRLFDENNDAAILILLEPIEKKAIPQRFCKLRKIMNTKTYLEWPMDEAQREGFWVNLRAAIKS

- binding result: binds
B1: anti-TLR2 scFv ER intrabody (αT2ib) (scFv, V domains shown)
VH: QVQLQQSGPELVNPGASVKLSCKASGFTFTTYGINWVKQGPGQGLEWIGWIYPRDGSTNFNENFKDKAALTVDTSSSTAYMELHSLTSEDSAVYFCARLTGGTFLDYWGQGTTVTVSS
VL: DIELTQSPASLAVSLGQRATISCRASESVEYYGTSLMQWYQQKPGQPPKLLIFGASNVESGVPVRFSGSGSGTDFSLNIHPVEEDDIVMYFCQQSRKLPWTFGGGTKLEIK
notes: VH of mouse mAb T2.5 (anti human/murine TLR2), amplified from hybridoma cDNA with consensus primers; synthetic 15 amino acid linker, printed as (Gly4Ser)3, between VH and VL; VL (kappa) of mouse mAb T2.5, amplified from hybridoma cDNA with consensus primers; Apparent size about 30 kDa; also called anti-TLR2 ER intrabody; TLR2 specific intrabody; source: HEK293, transiently transfected …
